Assay results taken from PMC2782360.

Assays:
[1] = target: native 67 kDa laminin receptor (67LR) shed from T47D cells (human (endogenous in T47D)) (UniProt P08865); experiment: SPR
[2] = target: recombinant human 37 kDa laminin receptor precursor (37LRP) (human) (UniProt P08865); experiment: SPR

human laminin (complex)
Kd [1]: 320 nM
Kd [2]: 410 nM
